In patent publication US20020022718A1, “Genes identified as required for proliferation of E. coli” (priority 1999, published 2002):

B1: EcXA150: antisense clone insert to E. coli spoT (nucleic acid, listed as Escherichia coli)
antisense: CCGGGGCTGACGTGGGCGATAATCGGGTCGCCAGGAATAGGGCGGCAGCATTTCGCAAAGGTGATCAGCACGCCATCGGCACCTTTAATGGGCAGATGTCCGTGGCTTTGGGTTGCCGGTGGAATGGAGGCGTCCCCATGTTGCAGATTTTTCGCGACCACCACGCTCATTGCGTTACCA
B2: EcXA141: antisense clone insert to E. coli rfc (nucleic acid, listed as Escherichia coli)
antisense: CGATTATAGGGCTGACCAAATACATGGATAGATAATATGCCATCCCCCCAGGCAGTCCACGTAAAAAGAGCATATACAAGGAGAATAGAACACCTACAGCTGTAATAAGATAAACATAATGTTTTACTCTATTAACACCTACGATGAATGCATAAGAGATGATAACCATAAAGACAATTTGCTTACCAGTATTCAGTATAATTGCAAAGATGAATACAATAAAAACAAGTAAAGTAAATGTTTTACTTACCTTTGTATTAGTAAATTTTTTA
B3: EcXA145: antisense clone insert to E. coli thyA (nucleic acid, listed as Escherichia coli)
antisense: TCGAAGAATTTAACGGAGGGTAAAAAAACCGACGCACACTGGCGTCGGCTCTGGCAGGATGTTTCGTAATTAGATAGCCACCGGCGCTTTAATGCCCGGATGCGGATCGTAGCCTTCAATCTCAAAGTCTTCGAAACGGTAGTCGAAGATGGATTCGGGTTTACGTTTGATAATCAACTTCGGC
B4: EcXA154: antisense clone insert to E. coli b1983 (nucleic acid, listed as Escherichia coli)
antisense: TTCTGTAATCAGAAAAAGAAGAACTGGAATTTTAATAAATATTATTTCTCTGGGAACGGGGGGGTATAATCAATATGACGAGTTGAATATTATATTTTTTATAAGAATTATATGAGATTAAAGAAATCTGCCGTAAAGACAGATTTCTTTAAAAGATAATTAGAGATTTGCGACGTTATGATAAACTTTTTGTACATCGTCGTCATCTTCAAG
B5: EcXA148: antisense clone insert to E. coli rffM (nucleic acid, listed as Escherichia coli)
antisense: GCAAATGTTTTCGTAATTCAGGAGAAATGGCAAATAAAGCATTAAAAATTTGAATGCTTTGTGTAATAAAAAAGCAGACAGGCGACGGAGTGACCACTCCGTCGCTTTACAAAGAGAGGAAAATCATAGGTTGCCGGTGTAGTGCCAGCGTAAATAACGCA
B6: EcXA146: antisense clone insert to E. coli pstB (nucleic acid, listed as Escherichia coli)
antisense: GTAGAAGTTCAAATTACGAACCTGAATTTTACTCGGGGCAGTTTCAACCATACTCATTGCAATCTTTTCCTCATCGTGCCTGATGCACTTCGCTAATCAGGCTTACCGTAGGCCGGATCAGG
B7: EcXA143: antisense clone insert to E. coli b2846 (nucleic acid, listed as Escherichia coli)
antisense: AACGTAAAACTTTACGTAAATTAACATGGTTAACATTTATGCCACTATTGTTTGTAAATTCATATTTCGTAATGCTTCTGAATTTTTCGTGTGATGGTTTTAAATACTATGGTGTTTACTCTTGAGGGGACGGCCTATTTATAAAATACGGACATTTCAATAAATGCCCGTATAAACAGAGTATGATTCTGGCTGGTCGTTGAGTATCAATGTTGGACCGAATGTGAACGAATAAATAATTCGTTTATTTTACCACCCATTCTCTTTTCGATTCGTTGCTTGTACGCGTAGATGCTACGGATATCCATATCCAGAACTTCAGCAATCTGATATGGATTATAACCAGAAACCATATACCCCATTATGGTGAATTCCATCTGAGTTAATGT
B8: EcXA153: antisense clone insert to E. coli yjbI (nucleic acid, listed as Escherichia coli)
antisense: CAACATCTCATGTCTGGATTTGTAGATATACGTGGAATTCCAATTGGTATCTTTTGTAGGATTCAACATATCATGTAAGCGCTGGGAGCTTACCACCATAACTGGCCCATCATCGACTGAGGAGAACAGGATAAAGATATTATCGTTTCGTGTTAATTCATTCGTGTTAAAGGTTCTTAAATTATCTTCAGTTTCTATAAATATAGG
B9: EcXA151: antisense clone insert to E. coli dctA (nucleic acid, listed as Escherichia coli)
antisense: TGTCGAGCATACGCGGCAGCGCCGACTCGGAAGATGAAGTCCCCAGTACAATCAGCAGTTCTTCACGGATGTAGCGGATAAATTTGAAGATACTGAAACCAGTCGCTTTAGCGATTGAACCCAATACCAGCACCACAAACAGGATACAGGTAATGTAGAAACAGATAATCAGCTGCCCCAGTTGCACCAGTGTGCCGACGCCGTATTTACCGATGGTAAACGCCATTGCCCCGAACGCACCAATAGGTGCCAGA
B10: EcXA156: antisense clone insert to E. coli yihN (nucleic acid, listed as Escherichia coli)
antisense: AAATAGACCGGCATACTTTCGTGCGGCAGCATAATCAACAGTACGAGCGCAGCGGTACTAATGATAAAGGTGTAGCATAGATATTTACTTGGCGATTTCAGGATCTTATCTGAAATCATGCCACCAATCGGTCCACCAATCATTTTCAGACAGT
B11: EcXA142: antisense clone insert to E. coli rpmJ, rpsM (nucleic acid, listed as Escherichia coli)
antisense: TGCGATTACGGCATGCTTATGATCAGGAATGTTAATGCCTGCTATACGGGCCACTATGCACTCCTACTATTTAATATGTACGTTCCATGCTGAAAAGCCCGTTTTCAGGATACTCAAATGGAAACGCACAGACATACAAAAGATTGGCTGGCTAATCTAGCCAGCTCAACCCAACTTTGCAAGAAAAATATGCGAAAAAATCAGCCTTGGCGCTGTTTATGCTTCGGCTCGGCACTGCAAATCACACGGATGACA
B12: EcXA152: antisense clone insert to E. coli bcr (nucleic acid, listed as Escherichia coli)
antisense: AGCTGATCGATGGTGTTTGCCAACGCACACGCCACCGCGGCGGCGGCAAACACCANCGTACCGCCGAGCACCACCGGCTTACGCCCGAAGCTGTCTGCCATCGGCCCGTAGATTAACTGCCCCAACGCAAAGCCCAGAATATAAGTACTGAGGGTCATCTGCGTACTGCCCGNCGGTACGCCAAACTGCGCTGAAATTACCGGTAGCGCGGGCAGATACATATCAATCGACAGCGGCATCAACATGGCCAGCAGGCCAAGGATAAAAACAATAGCAAACGACGAATGCTGTCGGGTGGTC
modifications: misc_feature (1)...(300): n = A,T,C or G
notes: antisense clone insert to E. coli bcr
B13: EcXA147: antisense clone insert to E. coli b1111 (nucleic acid, listed as Escherichia coli)
antisense: TAAATTCCGCGTATAGCGTGGGCGCTTTGGCTCCGGTCGCTTCGACGAGGTCCGCAAGAGAAGTCGCTTCATAACCGTGTTGCCAGAACAATTTCATGGCCTTATCAAGCGCGGCATCCCTGTCGAACACTTTTGGGCGGCCACGGCTTTTTTTTACACATTG

System: Klebsiella pneumoniae
Assay: Growth inhibition by induced E. coli antisense RNA in Klebsiella pneumoniae
Format: cell-based
Set-up: key: +: a positive in Table V below means that at least 10 fold more cells were required to observe a colony on the induced plate than on the non-induced plate; −: If there was no effect of antisense RNA expression in a microorganism, the clone is minus in Table V below
Details: antisense RNA expression induced with IPTG, serial dilution plating
Procedure: To study the effects of transcriptional induction in liquid medium, growth curves were carried out by back diluting cultures 1:200 into fresh media with or without 1 mM IPTG and measuring the OD450 every 30 minutes (min). To study the effects of transcriptional induction on solid medium, 10^2, 10^3, 10^4, 10^5, 10^6, 10^7 and 10^8 fold dilutions of overnight cultures were prepared. Aliquots of from 0.5 to 3 μl of these dilutions were spotted on selective agar plates with or without 1 mM IPTG. After overnight incubation, the plates were compared to assess the sensitivity of the clones to IPTG.
Molecule No. EcXA190, encoding a portion of the b3052 gene of Escherichia coli, was either transformed directly into Enterobacter cloacae, Salmonella typhimurium and/or Klebsiella pneumoniae or subcloned into an expression vector functional in these species and the subclones transformed into these organisms. Suitable expression vectors are well known in the art. These expression vectors were introduced into Enterobacter cloacae, Salmonella typhimurium and/or Klebsiella pneumoniae cells that were then assayed for growth inhibition according to the method of Example 1. After growth in liquid culture, cells were plated at various serial dilutions and a score determined by calculating the log difference in growth for INDUCED vs. UNINDUCED antisense RNA expression as determined by the maximum 10 fold dilution at which a colony was observed. If there was no effect of antisense RNA expression in one organism, the clone is given a score of zero “0” in that organism. In contrast, a score of “8” means that 10^8 times more cells were required to observe a colony formed on the induced state than in the non-induced state under the conditions used and in that organism.
In addition, the above methods were validated using other antisense nucleic acids which inhibit the growth of E. coli which were identified using methods similar to those described above. Expression vectors which inhibited growth of E. coli upon induction of antisense RNA expression with IPTG were transformed directly into Enterobacter cloacae, Klebsiella pneumonia or Salmonella typhimurium. The transformed cells were then assayed for growth inhibition according to the method of Example 1. After growth in liquid culture, cells were plated at various serial dilutions and a score determined by calculating the log difference in growth for INDUCED vs. UNINDUCED antisense RNA expression as determined by the maximum 10 fold dilution at which a colony was observed. If there was no effect of antisense RNA expression in a microorganism, the clone is minus in Table V below. In contrast, a positive in Table V below means that at least 10 fold more cells were required to observe a colony on the induced plate than on the non-induced plate under the conditions used and in that microorganism.

Row | Molecule | Sensitivity of K. pneumoniae to antisense nucleic acid (growth inhibition, induced vs. uninduced)
1 | B1 | −
2 | B2 | −
3 | B3 | −
4 | B4 | −
5 | B5 | −
6 | B6 | −
7 | B7 | −
8 | B8 | −
9 | B9 | −
10 | B10 | −
11 | B11 | −
12 | B12 | −
13 | B13 | −
